Laboratory results as given in patent publication US20240124607A1 (Merck Sharp & Dohme, published 2024).
Positions count from the first letter of the chain named. One block for each binder: values may come before it.

Experiments:
[1] = target: T1, soluble mouse Fc-human NKG2D dimer (human, UniProt P26718 78-216, limits assumed); test: SPR, mAb captured by anti-hFc, 37C
T1 construct: also called NKG2D-mFc; human NKG2D fused to a mouse Fc
T1 sequence (looked up): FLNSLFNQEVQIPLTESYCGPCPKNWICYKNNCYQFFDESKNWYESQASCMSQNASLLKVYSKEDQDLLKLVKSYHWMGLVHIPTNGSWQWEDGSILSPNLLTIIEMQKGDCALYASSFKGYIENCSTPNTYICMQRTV
Protocol: Kinetics and affinity of various NKG2D-binding domains were assessed by surface plasmon resonance using Biacore 8K instrument (GE Healthcare). Anti-human Fe antibody was immobilized on a CM5 chip using standard amine coupling chemistry. Human monoclonal antibodies containing various NKG2D-binding domains were captured on the anti-human Fc chip at a density of approximately 100 RU. […] Surfaces were regenerated between cycles by quick injection of 10 mM glycine, pH 1.8. To obtain kinetic rate constants, double-referenced data were fit to a 1:1 interaction model using Biacore 8K Evaluation software (GE Healthcare). The equilibrium binding constant KD was determined by the ratio of dissociation constant kd and association constant kₐ (kd/kₐ).

human CEACAM5 on cells [2] = target: T2, human CEACAM5 on cells (human, UniProt P06731 35-685); test: flow cytometry, Kato-III cells
T2 construct: tumour cell lines with endogenous CEACAM5, or B16F10 engineered to express hCEACAM5; also called CEACAM5 on MKN-45, HPAF-II, SK-CO-1, LoVo, BxPC-3, Kato-III, LS-174T, ZR-75-30; hCEACAM5-B16F10
T2 sequence: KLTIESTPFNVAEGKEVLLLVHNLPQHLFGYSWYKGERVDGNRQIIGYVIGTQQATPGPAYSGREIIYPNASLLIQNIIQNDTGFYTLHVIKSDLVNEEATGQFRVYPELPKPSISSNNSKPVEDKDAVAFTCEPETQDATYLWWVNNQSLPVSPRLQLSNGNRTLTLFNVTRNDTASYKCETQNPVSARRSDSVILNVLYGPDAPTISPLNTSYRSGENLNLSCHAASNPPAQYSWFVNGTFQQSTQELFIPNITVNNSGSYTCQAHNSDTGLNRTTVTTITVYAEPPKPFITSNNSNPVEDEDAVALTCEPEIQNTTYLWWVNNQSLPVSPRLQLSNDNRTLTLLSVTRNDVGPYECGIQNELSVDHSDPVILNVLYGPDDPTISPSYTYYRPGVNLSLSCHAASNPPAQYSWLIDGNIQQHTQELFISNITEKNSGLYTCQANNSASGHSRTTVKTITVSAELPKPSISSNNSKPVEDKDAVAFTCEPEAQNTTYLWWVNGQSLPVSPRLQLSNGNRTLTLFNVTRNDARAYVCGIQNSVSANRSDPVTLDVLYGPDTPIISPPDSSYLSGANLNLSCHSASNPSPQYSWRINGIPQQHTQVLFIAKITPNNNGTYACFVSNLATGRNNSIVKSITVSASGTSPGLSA

human CEACAM5 on cells [3] = target: T2, human CEACAM5 on cells; test: flow cytometry, BxPC-3 cells
human CEACAM5 on cells [4] = target: T2, human CEACAM5 on cells; test: flow cytometry, SK-CO-1 cells
human CEACAM5 on cells [5] = target: T2, human CEACAM5 on cells; test: flow cytometry, LoVo cells
human CEACAM5 on cells [6] = target: T2, human CEACAM5 on cells; test: flow cytometry, MKN-45 cells
human NKG2D-Fc [7] = target: T3, human NKG2D-Fc (human, UniProt P26718 73-216); test: ELISA on plate-adsorbed recombinant human NKG2D-Fc, anti-human kappa-HRP, OD 450 nm
T3 construct: extracellular domain; also called recombinant human NKG2D-Fc; NKG2D-Fc-biotin
T3 sequence (looked up): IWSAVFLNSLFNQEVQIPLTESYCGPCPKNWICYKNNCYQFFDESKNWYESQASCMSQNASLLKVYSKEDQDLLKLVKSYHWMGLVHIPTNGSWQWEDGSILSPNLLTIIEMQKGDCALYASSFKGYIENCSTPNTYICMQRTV
Text: (§1) The nucleic acid sequences of human, mouse or cynomolgus NKG2D ectodomains were fused with nucleic acid sequences encoding human IgG1 Fc domains and introduced into mammalian cells to be expressed. After purification, NKG2D-Fc fusion proteins were adsorbed to wells of microplates. After blocking the wells with bovine serum albumin to prevent non-specific binding, NKG2D-binding domains were titrated and added to the wells pre-adsorbed with NKG2D-Fc fusion proteins. Primary antibody binding was detected using a secondary antibody which was conjugated to horseradish peroxidase and specifically recognizes a human kappa light chain to avoid Fc cross-reactivity. 3,3′,5,5′-Tetramethylbenzidine (TMB), a substrate for horseradish peroxidase, was added to the wells to visualize the binding signal, whose absorbance was measured at 450 nm and corrected at […]. An NKG2D-binding domain clone, an isotype control or a positive control (comprising heavy chain and light chain variable domains selected from the group consisting of: SEQ ID NOs: 526-529, or anti-mouse NKG2D clones MI-6 and CX-5 available at eBioscience) was added to each well.

cynomolgus NKG2D-Fc = target: T4, cynomolgus NKG2D-Fc (cynomolgus monkey, UniProt P61252 73-216); test: ELISA on plate-adsorbed recombinant cynomolgus NKG2D-Fc, anti-human kappa-HRP, OD 450 nm
T4 construct: extracellular domain
T4 sequence (looked up): T3 sequence (looked up) with D43N, T133I
Text: as §1

mouse NKG2D-Fc = target: T5, mouse NKG2D-Fc (mouse, UniProt O54709 90-232); test: ELISA on plate-adsorbed recombinant mouse NKG2D-Fc, anti-human kappa-HRP, OD 450 nm
T5 construct: extracellular domain; also called Mouse NKG2D-Fc-biotin
T5 sequence (looked up): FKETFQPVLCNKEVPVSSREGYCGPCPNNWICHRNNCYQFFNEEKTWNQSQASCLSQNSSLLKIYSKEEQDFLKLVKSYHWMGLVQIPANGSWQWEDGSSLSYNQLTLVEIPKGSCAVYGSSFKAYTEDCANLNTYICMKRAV
Text: as §1

human NKG2D-Fc [8] = target: T3, human NKG2D-Fc; test: competition ELISA on plate-adsorbed human NKG2D-Fc; blocked ligand ULBP-6-His-biotin
Protocol: Recombinant human NKG2D-Fc proteins were adsorbed to wells of a microplate, and the wells were blocked with bovine serum albumin to reduce non-specific binding. A saturating concentration of ULBP-6-His-biotin was added to the wells, followed by addition of the NKG2D-binding domain clones. After a 2-hour incubation, wells were washed and ULBP-6-His-biotin that remained bound to the NKG2D-Fc coated wells was detected by streptavidin-conjugated to horseradish peroxidase and TMB substrate. Absorbance was measured at 450 nm and corrected at […]. After subtracting background, specific binding of NKG2D-binding domains to the NKG2D-Fc proteins was calculated from the percentage of ULBP-6-His-biotin that was blocked from binding to the NKG2D-Fc proteins in wells.

B6: ADI-27705 (antibody, V domains shown)
VH: QVQLQQWGAGLLKPSETLSLTCAVYGGSFSGYYWSWIRQPPGKGLEWIGEIDHSGSTNYNPSLKSRVTISVDTSKNQFSLKLSSVTAADTAVYYCARARGPWSFDPWGQGTLVTVSS
VL: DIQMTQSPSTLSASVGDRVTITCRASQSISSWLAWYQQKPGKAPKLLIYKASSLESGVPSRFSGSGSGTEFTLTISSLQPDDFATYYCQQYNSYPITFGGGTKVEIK
notes: named as a single clone only on the drawing sheets
EC50 (read off the curve) (human NKG2D-Fc [7]): ~0.6 nM | binding result (cynomolgus NKG2D-Fc): binds | binding result (mouse NKG2D-Fc): binds

B7: ADI-27741 (antibody, V domains shown)
VH: B6 VH
VL: DIQMTQSPSTLSASVGDRVTITCRASQSIGSWLAWYQQKPGKAPKLLIYKASSLESGVPSRFSGSGSGTEFTLTISSLQPDDFATYYCQQSNSYYTFGGGTKVEIK
notes: as for B6
binding result (human NKG2D-Fc [7]): binds | binding result (cynomolgus NKG2D-Fc): binds | binding result (mouse NKG2D-Fc): binds

B8: ADI-27724 (antibody, V domains shown)
VH: B6 VH
VL: not shown
notes: as for B6
EC50 (read off the curve) (human NKG2D-Fc [7]): ~10 nM | EC50 (read off the curve) (cynomolgus NKG2D-Fc): ~8 nM | EC50 (read off the curve) (mouse NKG2D-Fc): ~8 nM

B9: ADI-27740 (antibody, V domains shown)
VH: B6 VH
VL: B7 VL with S91Y, N92H, Y94F
notes: named as a single clone only on the drawing sheets; also called A40
IC50 (read off the curve) (human NKG2D-Fc [8]): ~6 nM | EC50 (read off the curve) (human NKG2D-Fc [7]): ~0.3 nM | EC50 (read off the curve) (cynomolgus NKG2D-Fc): ~0.3 nM | EC50 (read off the curve) (mouse NKG2D-Fc): ~0.2 nM

Other lines, results leading:

Kd [1]: 50.7 nM | koff [1]: 0.0225 s⁻¹ | kon [1]: 443000 M⁻¹ s⁻¹
B1: ADI-29379 (E79) (antibody, V domains shown)
VH: QVQLVQSGAEVKKPGASVKVSCKASGYTFTSYYMHWVRQAPGQGLEWMGIINPSGGSTSYAQKFQGRVTMTRDTSTSTVYMELSSLRSEDTAVYYCARGAPNYGDTTHDYYYMDVWGKGTTVTVSS
VL: EIVMTQSPATLSVSPGERATLSCRASQSVSSNLAWYQQKPGQAPRLLIYGASTRATGIPARFSGSGSGTEFTLTISSLQSEDFAVYYCQQYDDWPFTFGGGTKVEIK

Kd [1]: 58.5 nM | koff [1]: 0.0487 s⁻¹ | kon [1]: 832000 M⁻¹ s⁻¹
B2: ADI-29378 (E78) (antibody, V domains shown)
VH: QVQLVQSGAEVKKPGASVKVSCKASGYTFTSYYMHWVRQAPGQGLEWMGIINPSGGSTSYAQKFQGRVTMTRDTSTSTVYMELSSLRSEDTAVYYCAREGAGFAYGMDYYYMDVWGKGTTVTVSS
VL: B1 VL with M4L, V13L, N32Y, G50D, T53N, E70D, Q79E, S80P, Y91S, D93N

Kd [1]: 10.1 nM | koff [1]: 0.00299 s⁻¹ | kon [1]: 295000 M⁻¹ s⁻¹
B3: ADI-27744 (A44) (antibody, V domains shown)
VH: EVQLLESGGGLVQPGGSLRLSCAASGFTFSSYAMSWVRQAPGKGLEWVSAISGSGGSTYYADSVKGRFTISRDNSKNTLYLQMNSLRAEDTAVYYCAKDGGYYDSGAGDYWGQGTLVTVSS
VL: DIQMTQSPSSVSASVGDRVTITCRASQGIDSWLAWYQQKPGKAPKLLIYAASSLQSGVPSRFSGSGSGTDFTLTISSLQPEDFATYYCQQGVSYPRTFGGGTKVEIK

Kd [1]: 12.4 nM | koff [1]: 0.00489 s⁻¹ | kon [1]: 395000 M⁻¹ s⁻¹
B4: ADI-27749 (A49) (antibody, V domains shown)
VH: EVQLVESGGGLVKPGGSLRLSCAASGFTFSSYSMNWVRQAPGKGLEWVSSISSSSSYIYYADSVKGRFTISRDNAKNSLYLQMNSLRAEDTAVYYCARGAPMGAAAGWFDPWGQGTLVTVSS
VL: B3 VL with D30S, Y94F

EC50 (human CEACAM5 on cells [2]): 1.16 nM | Max FOB (human CEACAM5 on cells [2]): 3 fold over background | EC50 (human CEACAM5 on cells [3]): 3.37 nM | Max FOB (human CEACAM5 on cells [3]): 5 fold over background | EC50 (human CEACAM5 on cells [4]): 5.84 nM | Max FOB (human CEACAM5 on cells [4]): 14 fold over background | EC50 (human CEACAM5 on cells [5]): 2.71 nM | Max FOB (human CEACAM5 on cells [5]): 7 fold over background | EC50 (human CEACAM5 on cells [6]): 4.69 nM | Max FOB (human CEACAM5 on cells [6]): 23 fold over background
B5: AB0755 (antibody, V domains shown)
VH: QVQLVQSGAEVKKPGASVKVSCKASGYTFTAYTIHWVRQAPGQGLEWMGYINPSSGYTEYNQKFKDRTTLTADTSIPTAYMELSRLRSDDTAVYYCTREGGLLWFDYWGQGTLVTVSS
VL: DIVMTQSPDSLAVSLGERATINCKSSHSLLYGNFQNNYLAWYQQKPGQPPKLLIYWASTRESGVPDRFSGSGSGTDFTLTISSLQAEDVAVYYCQQYYSYPYTFGGGTKLEIK
notes: the scFv entries carry the stabilising cysteines, which the mAb may lack; also called mAb corresponding to AB0264

binding result (human NKG2D-Fc [7]): binds | binding result (cynomolgus NKG2D-Fc): binds | binding result (mouse NKG2D-Fc): binds
B10: ADI-28226 (antibody, V domains shown)
VH: B6 VH
VL: DIQMTQSPSTLSASVGDRVTITCRASQSISSWLAWYQQKPGKAPKLLIYKASSLESGVPSRFSGSGSGTEFTLTISSLQPDDFATYYCQQYGSFPITFGGGTKVEIK
notes: named as a single clone only on the drawing sheets; also called C26
